For one molecule, Kd results are on record in publication PMC4671958, “Structure of the Helicase Domain of DNA Polymerase Theta Reveals a Possible Role in the Microhomology-Mediated End-Joining Pathway”.

For the data set, the target named is Polθ-HLD (DNA polymerase theta helicase domain) (Homo sapiens, UniProt O75417 67-894). Briefly: fluorescence polarization; low salt, 50 mM NaCl; stated as single digit nM; 10 mM HEPES pH 7.5, 150 mM NaCl (low salt: 50 mM NaCl), 10 nM probe; temperature not stated in material. Particulars: protein: recombinant; tags: His6 tag cleaved with TEV; chain copies: 4; label: 5' fluorescein (FITC); single strand.
Sequence of Polθ-HLD (DNA polymerase theta helicase domain) (O75417 67-894): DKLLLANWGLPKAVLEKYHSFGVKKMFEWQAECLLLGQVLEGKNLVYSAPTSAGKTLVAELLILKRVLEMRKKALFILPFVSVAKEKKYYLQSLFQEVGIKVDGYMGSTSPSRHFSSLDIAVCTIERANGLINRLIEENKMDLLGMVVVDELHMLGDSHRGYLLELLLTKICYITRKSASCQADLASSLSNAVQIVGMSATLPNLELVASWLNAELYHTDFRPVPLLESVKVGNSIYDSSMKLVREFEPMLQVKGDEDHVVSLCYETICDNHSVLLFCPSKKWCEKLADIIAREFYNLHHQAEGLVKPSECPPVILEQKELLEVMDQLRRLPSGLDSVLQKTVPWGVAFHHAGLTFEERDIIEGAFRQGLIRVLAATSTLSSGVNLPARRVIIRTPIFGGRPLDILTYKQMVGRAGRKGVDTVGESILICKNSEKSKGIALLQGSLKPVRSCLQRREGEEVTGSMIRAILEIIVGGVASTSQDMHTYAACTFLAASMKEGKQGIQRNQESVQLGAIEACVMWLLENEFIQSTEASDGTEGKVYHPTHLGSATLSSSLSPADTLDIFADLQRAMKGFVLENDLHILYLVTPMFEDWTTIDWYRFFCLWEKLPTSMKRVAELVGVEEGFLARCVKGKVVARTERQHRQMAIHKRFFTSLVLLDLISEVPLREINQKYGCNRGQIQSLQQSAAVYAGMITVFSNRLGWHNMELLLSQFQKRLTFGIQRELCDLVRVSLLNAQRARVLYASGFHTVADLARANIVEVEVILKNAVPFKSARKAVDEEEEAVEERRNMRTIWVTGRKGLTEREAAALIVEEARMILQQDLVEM

B1: Single stranded (POLQ-1) (ssDNA)
DNA: ATCGATAGTCGGATCCTCTAGACAGCTCCATGTAGCAAGGCACTGGTAGAATTCGGCAGCGTC
Usually Kd stands for the constant that tells how readily two partners part at equilibrium. As for B1, the Kd was less than 10 nM.
